What is called stoichiometry N is a count of units in the complex or per binding partner.

The results in this text go back to paper PMC11016934, “Mechanism of GTPase activation of a prokaryotic small Ras-like GTPase MglA by an asymmetrically interacting MglB dimer” (The Journal of Biological Chemistry, 2024).

Data set [1] deals with MglA-link-MglB1 with C-terminal hexahistidine tag (mglA-link-mglB-H6) (Myxococcus xanthus) (UniProt Q1DB03).
In data set [2] the target is MglA-link-MglB^ΔCt with C-terminal hexahistidine tag (mglA-link-mglB^ΔCt-H6) (Myxococcus xanthus) (UniProt Q1DB03).
Data set [3] deals with MglB^ΔCt with C-terminal Strep-tag (MglB^ΔCt-Strep) (Myxococcus xanthus) (UniProt Q1DB03). The data set can be described thus: SEC-MALS; Superdex 200 Increase 10/300 GL, room temperature (about 25 °C), 50 mM NaCl, 50 mM Tris pH 8.0, 0.4 ml/min; purified linked complexes loaded at approximately 5 mg/ml, 110 μl. (Size exclusion chromatography separates by hydrodynamic size, large species first.)

Data set [4] deals with the molecule itself. The data set can be described thus: SEC; purified MglB^WT, MglB^ΔN and MglB^N37,R98A (Fig. S1B).
In data set [5] the target is T1, MglA (mutual gliding protein A), unlinked (Myxococcus xanthus) (UniProt Q1DB04).
T1 sequence: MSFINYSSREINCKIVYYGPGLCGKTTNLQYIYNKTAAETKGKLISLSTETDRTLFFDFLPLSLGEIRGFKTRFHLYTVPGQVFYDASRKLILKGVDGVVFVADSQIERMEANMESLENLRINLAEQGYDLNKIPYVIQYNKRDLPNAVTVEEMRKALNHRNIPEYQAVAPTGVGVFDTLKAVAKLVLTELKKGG

Data set [6] concerns the target T2, MglB with C-terminal Strep-tag (MglB-Strep) (Myxococcus xanthus), Q1DB03.
T2 chain: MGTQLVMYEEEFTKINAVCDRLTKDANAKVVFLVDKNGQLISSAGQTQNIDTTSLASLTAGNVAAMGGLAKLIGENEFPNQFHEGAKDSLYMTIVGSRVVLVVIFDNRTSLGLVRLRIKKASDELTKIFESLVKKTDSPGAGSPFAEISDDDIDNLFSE
The data set can be described thus: SEC-MALS; Superdex 200 Increase 10/300 GL, room temperature (about 25 °C), 50 mM NaCl, 50 mM Tris pH 8.0, 0.4 ml/min; purified linked complexes loaded at approximately 5 mg/ml, 110 μl. The conditions noted are these: remark: other sources report otherwise.

The target of data set [7] is T3, MglB, unlinked wild type (Myxococcus xanthus), Q1DB03.
T3 chain: T2 chain
The data set can be described thus: SEC; purified MglB^WT, MglB^ΔN and MglB^N37,R98A (Fig. S1B). To be noted: remark: other sources report otherwise.

Substitutions are numbered along the chain they refer to.

“MglB^ΔCt with C-terminal Strep-tag (MglB^ΔCt-Strep) (from UniProt Q1DB03 1-159) (domain or fragment)” gave a GTPase activity kobs of the linked complex {AB1B2^ΔCt} (NADH-coupled assay) in data set [1] of 0.17 min⁻¹. In addition, in data set [2], the GTPase activity kobs of the linked complex {AB^ΔCt} (NADH-coupled assay) was 0.1 min⁻¹. This molecule also gave a stoichiometry N in data set [3] of 2.

B1: MglB^ΔN (natural protein, Myxococcus xanthus)
chain: MYEEEFTKINAVCDRLTKDANAKVVFLVDKNGQLISSAGQTQNIDTTSLASLTAGNVAAMGGLAKLIGENEFPNQFHEGAKDSLYMTIVGSRVVLVVIFDNRTSLGLVRLRIKKASDELTKIFESLVKKTDSPGAGSPFAEISDDDIDNLFSE
notes: MglB, Myxococcus xanthus, with the N-terminal β-strand (residues 2 to 7) deleted; Dimer by SEC; also called MglB with residues 2 to 7 deleted; source: E. coli BL21AI, purified (as MglB, then Superdex 75 and MonoQ)
Take B1: the “stoichiometry N” value in data set [4] is 2.

B2: MglB with C-terminal Strep-tag (MglB-Strep) (natural protein)
chain: T2 chain
For B2, the GTPase activity kobs of the linked complex {AB^WT} (NADH-coupled assay, GDP released per minute per μM enzyme) in data set [1] stood at 0.2 min⁻¹. This molecule yielded a GTPase activity kobs of the linked complex {AB1^ΔCtB2} (NADH-coupled assay) in data set [2] of 0.07 min⁻¹.

B3: MglB^ΔCt, unlinked (domain or fragment)
chain: T2 chain
Molecule B3 had a GTPase activity kobs of unlinked AB^ΔCt (NADH-coupled assay) in data set [5] of 0.08 min⁻¹.

B4: MglB with C-terminal Strep-tag (MglB-Strep), Q1DB03 1-159 (natural protein)
chain: T2 chain
In the case of B4, the stoichiometry N in data set [6] stood at 2.

B5: MglB, unlinked wild type, Q1DB03 1-159 (natural protein)
chain: T2 chain
The molecule B5 registered a stoichiometry N in data set [7] of 2.

B6: MglB^N37,R98A (natural protein, Myxococcus xanthus)
chain: T2 chain with N37A, R98A
notes: MglB, Myxococcus xanthus, Asn-37 and Arg-98 mutated to alanines; also called double mutant of Asn-37 and Arg-98 to alanines; source: E. coli BL21AI, purified (as MglB, then Superdex 75 and MonoQ)
With B6, the binding result in data set [4] is given as “binds”.
